Experimental data from patent US11111295.

Biological target: human claudin 18A2 (CLD18A2) (human)
Experiment: cell-based or functional assay

Chain of human claudin 18A2 (CLD18A2) (human) (chain, as listed by the source limits assumed, form in doubt): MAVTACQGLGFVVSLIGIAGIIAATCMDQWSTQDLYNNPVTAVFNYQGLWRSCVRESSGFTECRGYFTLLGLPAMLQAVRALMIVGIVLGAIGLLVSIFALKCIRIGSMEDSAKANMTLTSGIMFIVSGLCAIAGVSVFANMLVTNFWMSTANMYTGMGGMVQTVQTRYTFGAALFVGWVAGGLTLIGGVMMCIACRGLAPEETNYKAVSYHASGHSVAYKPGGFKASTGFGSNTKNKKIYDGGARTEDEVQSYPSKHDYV

Question: With hu8E5-28Z chimeric antigen receptor as the substance, how does the CAR-T cytotoxicity on AGS-A2 cells, effector-to-target ratio 3:1 read?
Answer: The CAR-T cytotoxicity on AGS-A2 cells, effector-to-target ratio 3:1 was > 60%.

Question: What about the CAR-T cytotoxicity on BGC-823-A2 cells, effector-to-target ratio 3:1 of the same substance?
Answer: The CAR-T cytotoxicity on BGC-823-A2 cells, effector-to-target ratio 3:1 was > 90%.
